Measured values: patent publication US20190309093A1

Key:
[1] = target: CD3 on Jurkat luciferase reporter cells (UniProt P07766); test: flow cytometry of Jurkat_NFAT_Luc2P cells, PE-A; fold over hIgG
[2] = target: CD3 on Jurkat luciferase reporter cells (UniProt P07766); test: flow cytometry of Jurkat_NFAT_Luc2P cells; reference value, printed in all three panels on the left
[3] = target: CD3 on Jurkat luciferase reporter cells (UniProt P07766); test: flow cytometry of Jurkat_NFAT_Luc2P cells, FITC-A; fold over hIgG

Substance: Commercial CD3e(HiT3a) (antibody)
- Fold [1]: 58

Substance: hIgG (antibody)
- Fold [2]: 1

Substance: mOKT3 (antibody)
- Fold [3]: 45
